The source of these data is article PMC4403821.

B1: ORF74-Rluc8 [Kaposi's sarcoma-associated herpesvirus (KSHV)] / β-arrestin1-eYFP [not stated] (parent)
chain 1: MGDKGTRVFKKASPNGKLTVYLGKRDFVDHIDLVDPVDGVVLVDPEYLKERRVYVTLTCAFRYGREDLDVLGLTFRKDLFVANVQSFPPAPEDKKPLTRLQERLIKKLGEHAYPFTFEIPPNLPCSVTLQPGPEDTGKACGVDYEVKAFCAENLEEKIHKRNSVRLVIRKVQYAPERPGPQPTAETTRQFLMSDKPLHLEASLDKEIYYHGEPISVNVHVTNNTNKTVKKIKISVRQYADICLFNTAQYKCPVAMEEADDTVAPSSTFCKVYTLTPFLANNREKRGLALDGKLKHEDTNLASSTLLREGANREILGIIVSYKVKVKLVVSRGGLLGDLASSDVAVELPFTLMHPKPKEEPPHREVPENETPVDTNLIELDTNDDDIVFEDFARQRLKGMKDDKEEEEDGTGSPQLNNR
chain 2: MAAEDFLTIFLDDDESWNETLNMSGYDYSGNFSLEVSVCEMTTVVPYTWNVGILSLIFLINVLGNGLVTYIFCKHRSRAGAIDILLLGICLNSLCLSISLLAEVLMFLFPNIISTGLCRLEIFFYYLYVYLDIFSVVCVSLVRYLLVAYSTRSWPKKQSLGWVLTSAALLIALVLSGDACRHRSRVVDPVSKQAMCYENAGNMTADWRLHVRTVSVTAGFLLPLALLILFYALTWCVVRRTKLQARRKVRGVIVAVVLLFFVFCFPYHVLNLLDTLLRRRWIRDSCYTRGLINVGLAVTSLLQALYSAVVPLIYSCLGSLFRQRMYGLFQSLRQSFMSGATT

The variants in this experiment derive from B1. Nature of the experiment: BRET. Conditions: with β-arrestin1-eYFP; 300 nM CXCL1 (black bar); vehicle bar ~1.00; parent: 1.14; read off a plot. In general terms: BRET reads energy transfer from a luciferase to a nearby fluorophore.
Turning to chain 2 S315A S319A S331A S335A S338A T341A T342A, the response was 1 fold basal.
